Reference: IntAct's records for PubMed 18555782

B1: Heat shock protein homolog SSE1 (Saccharomyces cerevisiae), P32589 (parent)
chain: MSTPFGLDLGNNNSVLAVARNRGIDIVVNEVSNRSTPSVVGFGPKNRYLGETGKNKQTSNIKNTVANLKRIIGLDYHHPDFEQESKHFTSKLVELDDKKTGAEVRFAGEKHVFSATQLAAMFIDKVKDTVKQDTKANITDVCIAVPPWYTEEQRYNIADAARIAGLNPVRIVNDVTAAGVSYGIFKTDLPEGEEKPRIVAFVDIGHSSYTCSIMAFKKGQLKVLGTACDKHFGGRDFDLAITEHFADEFKTKYKIDIRENPKAYNRILTAAEKLKKVLSANTNAPFSVESVMNDVDVSSQLSREELEELVKPLLERVTEPVTKALAQAKLSAEEVDFVEIIGGTTRIPTLKQSISEAFGKPLSTTLNQDEAIAKGAAFICAIHSPTLRVRPFKFEDIHPYSVSYSWDKQVEDEDHMEVFPAGSSFPSTKLITLNRTGDFSMAASYTDITQLPPNTPEQIANWEITGVQLPEGQDSVPVKLKLRCDPSGLHTIEEAYTIEDIEVEEPIPLPEDAPEDAEQEFKKVTKTVKKDDLTIVAHTFGLDAKKLNELIEKENEMLAQDKLVAETEDRKNTLEEYIYTLRGKLEEEYAPFASDAEKTKLQGMLNKAEEWLYDEGFDSIKAKYIAKYEELASLGNIIRGRYLAKEEEKKQAIRSKQEASQMAAMAEKLAAQRKAEAEKKEEKKDTEGDVDMD

Variants of: B1
Settings: with hsp71_yeast SSA1, P10591
Chain of hsp71_yeast SSA1, P10591 (P10591 whole entry): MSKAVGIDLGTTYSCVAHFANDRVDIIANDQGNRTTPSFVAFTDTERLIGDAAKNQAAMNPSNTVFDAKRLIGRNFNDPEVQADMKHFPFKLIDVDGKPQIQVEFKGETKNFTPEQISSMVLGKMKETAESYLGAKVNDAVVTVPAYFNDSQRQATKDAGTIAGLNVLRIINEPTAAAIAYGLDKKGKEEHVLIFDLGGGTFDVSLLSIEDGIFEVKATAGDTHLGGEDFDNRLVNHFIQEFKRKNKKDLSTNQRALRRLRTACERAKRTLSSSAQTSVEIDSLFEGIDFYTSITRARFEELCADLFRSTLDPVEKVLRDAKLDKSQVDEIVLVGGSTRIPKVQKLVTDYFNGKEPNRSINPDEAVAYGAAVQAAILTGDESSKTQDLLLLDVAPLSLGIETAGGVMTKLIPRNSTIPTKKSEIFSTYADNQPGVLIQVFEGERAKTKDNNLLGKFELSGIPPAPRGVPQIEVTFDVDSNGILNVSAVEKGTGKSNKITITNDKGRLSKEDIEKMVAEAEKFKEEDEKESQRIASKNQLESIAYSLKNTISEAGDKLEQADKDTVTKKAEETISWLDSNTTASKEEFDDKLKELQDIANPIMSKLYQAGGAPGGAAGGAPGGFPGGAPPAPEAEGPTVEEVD

Effect of a mutation on the interaction, decreasing interaction:
D396A
E554A;M557S;L558S
A280T;N281A
L489A;H490A
N572Y;E575A
F392A;F394A
T365V;N367S
